Assay results reported in publication PMC3338918 (Angiogenesis, 2012).

T1: hVEGFR3-hFc (human, UniProt P35916 25-775)
T1 construct: human VEGFR3; source: bought: R&D Systems
T1 sequence (looked up): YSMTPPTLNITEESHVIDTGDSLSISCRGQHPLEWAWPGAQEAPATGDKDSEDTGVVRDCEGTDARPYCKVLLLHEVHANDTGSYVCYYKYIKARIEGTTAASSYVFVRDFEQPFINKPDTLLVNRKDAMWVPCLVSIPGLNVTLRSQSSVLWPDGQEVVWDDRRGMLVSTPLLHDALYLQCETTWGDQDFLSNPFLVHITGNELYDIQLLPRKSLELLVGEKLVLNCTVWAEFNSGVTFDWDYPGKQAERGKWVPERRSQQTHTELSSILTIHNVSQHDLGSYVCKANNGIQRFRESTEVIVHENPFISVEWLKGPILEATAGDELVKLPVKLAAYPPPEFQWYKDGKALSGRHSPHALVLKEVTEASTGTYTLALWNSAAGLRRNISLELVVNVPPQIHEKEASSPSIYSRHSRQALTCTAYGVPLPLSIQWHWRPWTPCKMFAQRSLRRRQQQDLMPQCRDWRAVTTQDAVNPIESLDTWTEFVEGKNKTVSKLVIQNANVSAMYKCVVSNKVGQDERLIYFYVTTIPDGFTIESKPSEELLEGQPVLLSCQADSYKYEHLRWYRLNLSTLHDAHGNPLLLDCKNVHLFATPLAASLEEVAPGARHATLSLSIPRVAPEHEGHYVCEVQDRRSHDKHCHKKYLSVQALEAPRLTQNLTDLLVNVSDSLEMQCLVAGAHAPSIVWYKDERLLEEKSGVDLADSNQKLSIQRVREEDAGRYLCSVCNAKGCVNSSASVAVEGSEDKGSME


Molecular target: T1, hVEGFR3-hFc
Experiment: SPR; Biacore 3000, CM5 chip, 25°C, HBS-T (10 mM Hepes, 150 mM NaCl, 3.4 mM EDTA, 0.05% polysorbate 20, pH 7.4); VEGF Trap or receptor-Fc captured at low density on amine-coupled Protein A, ligands injected (1.0–0.062 nM VEGF-A, 2.5–0.156 nM VEGF-B(10-108), 5.0–0.078 nM PlGF); kd of VEGF-A ligands by the 'fixed kd' procedure on a Biacore 2000 (~2–3 h); KD = kd/ka
Settings: both partners purified

binding result | Binder
binds | human VEGF-C (ligand, UniProt P49767 112-227, looked up, human VEGF-C; source: bought: R&D Systems) AHYNTEILKSIDNEWRKTQCMPREVCIDVGKEFGVATNTFFKPPCVSVYRCGGCCNSEGLQCMNTSTSYLSKTLFEITVPLSQGPKPVTISFANHTSCRCMSKLDVYRQVHSIIRR
binds | human VEGF-D (ligand, UniProt O43915 89-205, looked up, human VEGF-D; source: bought: R&D Systems) FAATFYDIETLKVIDEEWQRTQCSPRETCVEVASELGKSTNTFFKPPCVNVFRCGGCCNEESLICMNTSTSYISKQLFEISVPLTSVPELVPVKVANHTGCKCLPTAPRHPYSIIRR
